Measurements reported in patent US20260167699A1 (Chugai, published 2026).

Key:
FcγRIIa(R) = biological target: T1, FcγRIIa(R) (human, UniProt P12318 34-217); experiment: SPR (Biacore), binding relative to GpH7-A5/GpH7-B3/GpL16-k0 x100;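 note: surface plasmon resonance at 25 °C, antibody captured on a sensor chip and soluble FcγR flowed over it in HBS-EP+ running buffer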
T1 construct: extracellular domain; also called FcγRIIa R type; 2aR
T1 sequence: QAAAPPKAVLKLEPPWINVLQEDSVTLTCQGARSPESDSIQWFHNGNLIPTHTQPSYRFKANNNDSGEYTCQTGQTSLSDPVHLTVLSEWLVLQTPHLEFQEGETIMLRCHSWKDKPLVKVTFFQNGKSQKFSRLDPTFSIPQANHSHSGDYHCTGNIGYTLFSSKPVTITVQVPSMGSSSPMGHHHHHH
Protocol: (§1) The antibody of interest was analyzed for its interaction with FcγR using a BiaCore™ T100, BiaCore™ A100, or BiaCore™ 4000 surface plasmon resonance system (GE Healthcare Japan Corp.). The running buffer used was HBS-EP+ (GE Healthcare Japan Corp.). The assay temperature was set to 25° C. The sensor chips used were: a chip prepared by immobilizing antigenic peptides onto Series S Sensor Chip CM5 (GE Healthcare Japan Corp.) by the amine coupling method; a chip prepared by immobilizing antigenic peptides biotinylated in advance onto Series S Sensor Chip SA (certified) (GE Healthcare Japan Corp.) through their interaction; a chip prepared by immobilizing protein L (ACTIGEN, BioVision, Inc.) onto Series S Sensor Chip CM5 (GE Healthcare Japan Corp.); and a chip prepared by immobilizing protein A/G (Thermo Fisher Scientific K.K.) onto Series S Sensor Chip CM5 (GE Healthcare Japan Corp.). The antibody of interest was captured onto any of these chips and allowed to interact with FcγR diluted with a running buffer. The antibody captured on the chip was washed off through the reaction of 10 mM glycine-HCl (pH 1.5) to regenerate the chip, which was repetitively used.

FcγRIa = biological target: T2, FcγRIa (human, UniProt P12314 16-292); experiment: as above
T2 construct: extracellular domain; also called 1a
T2 sequence (P12314 other isoform, or with tags, fused parts or gaps): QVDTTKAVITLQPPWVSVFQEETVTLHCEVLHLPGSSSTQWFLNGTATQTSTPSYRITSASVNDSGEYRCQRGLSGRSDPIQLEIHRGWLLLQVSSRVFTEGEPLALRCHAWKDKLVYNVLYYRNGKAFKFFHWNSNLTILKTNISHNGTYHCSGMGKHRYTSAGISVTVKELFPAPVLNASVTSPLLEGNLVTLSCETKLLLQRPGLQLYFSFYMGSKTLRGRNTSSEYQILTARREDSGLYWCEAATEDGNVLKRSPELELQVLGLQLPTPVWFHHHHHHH
Protocol: as §1

FcγRIIa(H) = biological target: T3, FcγRIIa(H) (human, UniProt P12318 34-217); experiment: as above
T3 construct: extracellular domain; also called FcγRIIa H type; 2aH
T3 sequence: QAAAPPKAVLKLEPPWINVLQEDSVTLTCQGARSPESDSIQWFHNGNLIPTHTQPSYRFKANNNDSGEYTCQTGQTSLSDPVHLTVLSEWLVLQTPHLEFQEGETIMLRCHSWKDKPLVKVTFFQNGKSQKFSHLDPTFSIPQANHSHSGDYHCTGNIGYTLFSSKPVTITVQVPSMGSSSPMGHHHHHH
Protocol: as §1

FcγRIIb = biological target: T4, FcγRIIb (human, UniProt P31994 43-217); experiment: as above
T4 construct: extracellular domain; also called 2b
T4 sequence: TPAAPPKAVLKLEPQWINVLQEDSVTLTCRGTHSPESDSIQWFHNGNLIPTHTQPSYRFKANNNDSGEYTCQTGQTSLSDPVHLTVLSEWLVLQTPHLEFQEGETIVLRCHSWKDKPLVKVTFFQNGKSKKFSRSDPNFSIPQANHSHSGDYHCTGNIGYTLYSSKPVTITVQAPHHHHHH
Protocol: as §1

[1] = biological target: T5, FcγRIIIa extracellular domain, C-terminal His tag (human, UniProt P08637 17-208); experiment: SPR; He Ab vs HeCon Ab (GpH7-A5/GpH7-B3/GpL16-k0)=100;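 note: surface plasmon resonance at 25 °C with the test antibody captured on a sensor chip via antigenic peptide, protein L or protein A/G and FcγR flowed over as analyte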
T5 construct: extracellular domain; also called 3a
T5 sequence (P08637 other isoform, or with tags, fused parts or gaps): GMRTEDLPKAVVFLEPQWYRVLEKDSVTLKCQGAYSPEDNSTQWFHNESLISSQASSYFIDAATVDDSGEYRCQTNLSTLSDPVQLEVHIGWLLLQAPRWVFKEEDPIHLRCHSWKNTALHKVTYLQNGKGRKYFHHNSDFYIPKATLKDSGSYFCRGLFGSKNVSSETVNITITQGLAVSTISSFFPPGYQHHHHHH
Protocol: as §1

[2] = biological target: T6, FcγRIIa(H) extracellular domain, C-terminal His tag (human, UniProt P12318 34-217); experiment: as above
T6 construct: extracellular domain; also called 2aH
T6 sequence: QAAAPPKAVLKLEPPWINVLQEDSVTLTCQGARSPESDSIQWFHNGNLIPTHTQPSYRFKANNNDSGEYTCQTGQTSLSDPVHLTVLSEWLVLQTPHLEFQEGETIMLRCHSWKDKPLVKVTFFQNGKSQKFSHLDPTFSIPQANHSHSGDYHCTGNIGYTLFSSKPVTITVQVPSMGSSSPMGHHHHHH
Protocol: as §1

[3] = biological target: T7, FcγRIIb extracellular domain, C-terminal His tag (human, UniProt P31994 43-217); experiment: as above
T7 construct: extracellular domain; also called 2b
T7 sequence: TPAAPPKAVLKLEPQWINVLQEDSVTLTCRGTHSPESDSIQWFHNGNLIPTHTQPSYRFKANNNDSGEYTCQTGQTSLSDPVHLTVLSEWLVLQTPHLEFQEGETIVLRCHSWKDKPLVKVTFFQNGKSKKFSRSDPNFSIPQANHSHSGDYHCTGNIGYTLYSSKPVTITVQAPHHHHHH
Protocol: as §1

[4] = biological target: T8, FcγRIa extracellular domain, C-terminal His tag (human, UniProt P12314 16-292); experiment: as above
T8 construct: extracellular domain; also called 1a
T8 sequence (P12314 other isoform, or with tags, fused parts or gaps): as the sequence (P12314 other isoform, or with tags, fused parts or gaps) above
Protocol: as §1

[5] = biological target: T9, FcγRIIa(R) extracellular domain, C-terminal His tag (human, UniProt P12318 34-217); experiment: as above
T9 construct: extracellular domain; also called 2aR
T9 sequence: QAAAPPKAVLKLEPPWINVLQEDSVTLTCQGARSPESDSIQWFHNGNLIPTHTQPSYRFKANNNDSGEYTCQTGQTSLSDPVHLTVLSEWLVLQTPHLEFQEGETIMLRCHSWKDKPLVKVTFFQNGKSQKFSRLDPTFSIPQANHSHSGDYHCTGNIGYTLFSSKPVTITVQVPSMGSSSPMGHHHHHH
Protocol: as §1

Row | Binder | He/Con 2aR (FcγRIIa(R)) [%] | He/Con 1a (FcγRIa) [%] | He/Con 2aH (FcγRIIa(H)) [%] | He/Con 2b (FcγRIIb) [%] | He/Con 3a [1] [%] | He/Con 2aH [2] [%] | He/Con 2b [3] [%] | He/Con 1a [4] [%] | He/Con 2aR [5] [%]
1 | GpH7-A5/GpH7-B3 variant S267_19Q/GpL16-k0 (antibody, human IgG1, kappa, heterodimerized IgG1, one H chain mutated; also called He Ab) heavy 1: not shown heavy 2: not shown light: DIVMTQSPLSLPVTPGEPASISCQASESLVHSNRNTYLHWYLQKPGQSPQLLIYKVSNRFSGVPDRFSGSGSGTDFTLKISRVEAEDVGVYYCSQNTHVPPTFGQGTKVEIERTVAAPSVFIFPPSDEQLKSGTASVVCLLNNFYPREAKVQWKVDNALQSGNSQESVTEQDSKDSTYSLSSTLTLSKADYEKHKVYACEVTHQGLSSPVTKSFNRGEC | 145 | 99.2 | 61.9 | 228 |  |  |  |  | 
2 | GpH7-A5/GpH7-B3 variant Q295_12R/GpL16-k0 (antibody, human IgG1, kappa, heterodimerized IgG1, one H chain mutated; also called He Ab; copies: 1 + 1 + 2) heavy 1: not shown heavy 2: not shown light: DIVMTQSPLSLPVTPGEPASISCQASESLVHSNRNTYLHWYLQKPGQSPQLLIYKVSNRFSGVPDRFSGSGSGTDFTLKISRVEAEDVGVYYCSQNTHVPPTFGQGTKVEIERTVAAPSVFIFPPSDEQLKSGTASVVCLLNNFYPREAKVQWKVDNALQSGNSQESVTEQDSKDSTYSLSSTLTLSKADYEKHKVYACEVTHQGLSSPVTKSFNRGEC |  |  |  |  | 73.2 | 96.4 | 73.1 | 98.8 | 82.2
3 | GpH7-A5/GpH7-B3 variant V266_07I/GpL16-k0 (antibody, human IgG1, kappa, heterodimerized IgG1, one H chain mutated; also called He Ab) heavy 1: not shown heavy 2: not shown light: DIVMTQSPLSLPVTPGEPASISCQASESLVHSNRNTYLHWYLQKPGQSPQLLIYKVSNRFSGVPDRFSGSGSGTDFTLKISRVEAEDVGVYYCSQNTHVPPTFGQGTKVEIERTVAAPSVFIFPPSDEQLKSGTASVVCLLNNFYPREAKVQWKVDNALQSGNSQESVTEQDSKDSTYSLSSTLTLSKADYEKHKVYACEVTHQGLSSPVTKSFNRGEC | 129 | 96.1 | 107 | 160 |  |  |  |  | 
4 | GpH7-A5/GpH7-B3 variant V266_06M/GpL16-k0 (antibody, human IgG1, kappa, heterodimerized IgG1, one H chain mutated; also called He Ab) heavy 1: not shown heavy 2: not shown light: DIVMTQSPLSLPVTPGEPASISCQASESLVHSNRNTYLHWYLQKPGQSPQLLIYKVSNRFSGVPDRFSGSGSGTDFTLKISRVEAEDVGVYYCSQNTHVPPTFGQGTKVEIERTVAAPSVFIFPPSDEQLKSGTASVVCLLNNFYPREAKVQWKVDNALQSGNSQESVTEQDSKDSTYSLSSTLTLSKADYEKHKVYACEVTHQGLSSPVTKSFNRGEC | 161 | 96.5 | 84.8 | 264 |  |  |  |  | 
5 | GpH7-A5/GpH7-B3 variant P271_03V/GpL16-k0 (antibody, human IgG1, kappa, heterodimerized IgG1, one H chain mutated; also called He Ab; copies: 1 + 1 + 2) heavy 1: not shown heavy 2: not shown light: DIVMTQSPLSLPVTPGEPASISCQASESLVHSNRNTYLHWYLQKPGQSPQLLIYKVSNRFSGVPDRFSGSGSGTDFTLKISRVEAEDVGVYYCSQNTHVPPTFGQGTKVEIERTVAAPSVFIFPPSDEQLKSGTASVVCLLNNFYPREAKVQWKVDNALQSGNSQESVTEQDSKDSTYSLSSTLTLSKADYEKHKVYACEVTHQGLSSPVTKSFNRGEC |  |  |  |  | 73.5 | 85.4 | 83.8 | 101 | 85.8
6 | GpH7-A5/GpH7-B3 variant P271_07I/GpL16-k0 (antibody, human IgG1, kappa, heterodimerized IgG1, one H chain mutated; also called He Ab; copies: 1 + 1 + 2) heavy 1: not shown heavy 2: not shown light: DIVMTQSPLSLPVTPGEPASISCQASESLVHSNRNTYLHWYLQKPGQSPQLLIYKVSNRFSGVPDRFSGSGSGTDFTLKISRVEAEDVGVYYCSQNTHVPPTFGQGTKVEIERTVAAPSVFIFPPSDEQLKSGTASVVCLLNNFYPREAKVQWKVDNALQSGNSQESVTEQDSKDSTYSLSSTLTLSKADYEKHKVYACEVTHQGLSSPVTKSFNRGEC |  |  |  |  | 80.2 | 94.1 | 86.1 | 101 | 88
7 | GpH7-A5/GpH7-B3 variant V266_08L/GpL16-k0 (antibody, human IgG1, kappa, heterodimerized IgG1, one H chain mutated; also called He Ab) heavy 1: not shown heavy 2: not shown light: DIVMTQSPLSLPVTPGEPASISCQASESLVHSNRNTYLHWYLQKPGQSPQLLIYKVSNRFSGVPDRFSGSGSGTDFTLKISRVEAEDVGVYYCSQNTHVPPTFGQGTKVEIERTVAAPSVFIFPPSDEQLKSGTASVVCLLNNFYPREAKVQWKVDNALQSGNSQESVTEQDSKDSTYSLSSTLTLSKADYEKHKVYACEVTHQGLSSPVTKSFNRGEC | 152 | 94.9 | 106 | 248 |  |  |  |  | 
8 | GpH7-A5/GpH7-B3 variant P271_06M/GpL16-k0 (antibody, human IgG1, kappa, heterodimerized IgG1, one H chain mutated; also called He Ab; copies: 1 + 1 + 2) heavy 1: not shown heavy 2: not shown light: DIVMTQSPLSLPVTPGEPASISCQASESLVHSNRNTYLHWYLQKPGQSPQLLIYKVSNRFSGVPDRFSGSGSGTDFTLKISRVEAEDVGVYYCSQNTHVPPTFGQGTKVEIERTVAAPSVFIFPPSDEQLKSGTASVVCLLNNFYPREAKVQWKVDNALQSGNSQESVTEQDSKDSTYSLSSTLTLSKADYEKHKVYACEVTHQGLSSPVTKSFNRGEC |  |  |  |  | 74 | 87.7 | 87 | 101 | 87.3
9 | GpH7-A5/GpH7-B3 variant P271_01G/GpL16-k0 (antibody, human IgG1, kappa, heterodimerized IgG1, one H chain mutated; also called He Ab; copies: 1 + 1 + 2) heavy 1: not shown heavy 2: not shown light: DIVMTQSPLSLPVTPGEPASISCQASESLVHSNRNTYLHWYLQKPGQSPQLLIYKVSNRFSGVPDRFSGSGSGTDFTLKISRVEAEDVGVYYCSQNTHVPPTFGQGTKVEIERTVAAPSVFIFPPSDEQLKSGTASVVCLLNNFYPREAKVQWKVDNALQSGNSQESVTEQDSKDSTYSLSSTLTLSKADYEKHKVYACEVTHQGLSSPVTKSFNRGEC |  |  |  |  | 119 | 123 | 217 | 103 | 143
10 | GpH7-A5/GpH7-B3 variant V266_02A/GpL16-k0 (antibody, human IgG1, kappa, heterodimerized IgG1, one H chain mutated; also called He Ab) heavy 1: not shown heavy 2: not shown light: DIVMTQSPLSLPVTPGEPASISCQASESLVHSNRNTYLHWYLQKPGQSPQLLIYKVSNRFSGVPDRFSGSGSGTDFTLKISRVEAEDVGVYYCSQNTHVPPTFGQGTKVEIERTVAAPSVFIFPPSDEQLKSGTASVVCLLNNFYPREAKVQWKVDNALQSGNSQESVTEQDSKDSTYSLSSTLTLSKADYEKHKVYACEVTHQGLSSPVTKSFNRGEC | 88.8 | 93.8 | 69.7 | 85.1 |  |  |  |  | 
11 | GpH7-A5/GpH7-B3 variant P271_09D/GpL16-k0 (antibody, human IgG1, kappa, heterodimerized IgG1, one H chain mutated; also called He Ab; copies: 1 + 1 + 2) heavy 1: not shown heavy 2: not shown light: DIVMTQSPLSLPVTPGEPASISCQASESLVHSNRNTYLHWYLQKPGQSPQLLIYKVSNRFSGVPDRFSGSGSGTDFTLKISRVEAEDVGVYYCSQNTHVPPTFGQGTKVEIERTVAAPSVFIFPPSDEQLKSGTASVVCLLNNFYPREAKVQWKVDNALQSGNSQESVTEQDSKDSTYSLSSTLTLSKADYEKHKVYACEVTHQGLSSPVTKSFNRGEC |  |  |  |  | 97.7 | 80.4 | 135 | 100 | 109
12 | GpH7-A5/GpH7-B3 variant P271_08L/GpL16-k0 (antibody, human IgG1, kappa, heterodimerized IgG1, one H chain mutated; also called He Ab; copies: 1 + 1 + 2) heavy 1: not shown heavy 2: not shown light: DIVMTQSPLSLPVTPGEPASISCQASESLVHSNRNTYLHWYLQKPGQSPQLLIYKVSNRFSGVPDRFSGSGSGTDFTLKISRVEAEDVGVYYCSQNTHVPPTFGQGTKVEIERTVAAPSVFIFPPSDEQLKSGTASVVCLLNNFYPREAKVQWKVDNALQSGNSQESVTEQDSKDSTYSLSSTLTLSKADYEKHKVYACEVTHQGLSSPVTKSFNRGEC |  |  |  |  | 74.5 | 99.4 | 115 | 101 | 103
13 | GpH7-A5/GpH7-B3 variant P271_02A/GpL16-k0 (antibody, human IgG1, kappa, heterodimerized IgG1, one H chain mutated; also called He Ab; copies: 1 + 1 + 2) heavy 1: not shown heavy 2: not shown light: DIVMTQSPLSLPVTPGEPASISCQASESLVHSNRNTYLHWYLQKPGQSPQLLIYKVSNRFSGVPDRFSGSGSGTDFTLKISRVEAEDVGVYYCSQNTHVPPTFGQGTKVEIERTVAAPSVFIFPPSDEQLKSGTASVVCLLNNFYPREAKVQWKVDNALQSGNSQESVTEQDSKDSTYSLSSTLTLSKADYEKHKVYACEVTHQGLSSPVTKSFNRGEC |  |  |  |  | 83.7 | 88.4 | 98.7 | 102 | 93.9
